Results taken from paper PMC2671406 (PLoS ONE, 2009).

Experiments:
Details in all cases: both partners purified
[1] = target: T1, Human (vertebrate) calmodulin (human, UniProt P0DP23 1-149); assay: ITC; CaM (0.1 mM) in the cell, CnA-CBD peptide (1 mM) in the syringe, 5 µl injections; +35°C; 10 mM HEPES pH 7.5, 100 mM NaCl, 10 mM CaCl2
T1 construct: also called CaM

[2] = target: T1, Human (vertebrate) calmodulin; assay: ITC; CaM (0.1 mM) in the cell, CnA-CBD peptide (1 mM) in the syringe, 5 µl injections; +30°C; 10 mM HEPES pH 7.5, 100 mM NaCl, 10 mM CaCl2
[3] = target: T1, Human (vertebrate) calmodulin; assay: SEC; CaM (200 µl at 176 µM) on Superdex 75 HR 10/30 with and without excess (625 µM) CnA-CBD peptide; 50 mM HEPES pH 7.5, 150 mM NaCl, 4 mM CaCl2

B1: Peptide corresponding to the CaM binding domain of calcineurin A (residues 395-411) (peptide)
peptide: VIRNKIRAIGKMARVFS
notes: also called CnA-CBD; CnA-CBD peptide; source: bought: GL Biochem (Shanghai, China)
Ka [1]: 1.4e+06 M⁻¹
Kd [1]: 700 nM
dH [1]: -5.7 kcal/mol
Ka [2]: 3.5e+06 M⁻¹
Kd [2]: 300 nM
dH [2]: -1.8 kcal/mol
stoichiometry N [3]: 1
